Assay results taken from the supplement of paper PMC9112550, “Optimization of the antimicrobial peptide Bac7 by deep mutational scanning” (BMC Biology, 2022).

What follows are sequences tested on Escherichia coli TOP10 (assay: shrunken log2 fold change of peptide-encoding DNA abundance (4.5 h post-induction vs induction); higher = less antimicrobial activity (less host growth inhibition)). Conditions: time post-induction: 4.5 h; library: site-saturation at positions 5, 18, 19, 20.
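Further: peptides expressed intracellularly from a pBAD plasmid library in pooled LB shake-flask culture, induced with 0.3% L-arabinose, DNA abundance read by NGS, three biological replicates, DESeq2 with apeglm shrinkage.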

Sequence	shrunken log2 fold change
RRIRARPPRLPRPRPRPLCLPRP	0.132
RRIRARPPRLPRPRPRPLCRPRP	0.327
RRIRARPPRLPRPRPRPLCVPRP	0.183
RRIRARPPRLPRPRPRPLESPRP	0.486
RRIRARPPRLPRPRPRPLGEPRP	0.896
RRIRARPPRLPRPRPRPLIIPRP	-0.415
RRIRARPPRLPRPRPRPLILPRP	-0.252
RRIRARPPRLPRPRPRPLKEPRP	0.218
RRIRARPPRLPRPRPRPLKTPRP	0.219
RRIRARPPRLPRPRPRPLLDPRP	0.788
RRIRARPPRLPRPRPRPLLIPRP	-0.0375
RRIRARPPRLPRPRPRPLLVPRP	0.284
RRIRARPPRLPRPRPRPLMFPRP	0.187
RRIRARPPRLPRPRPRPLMHPRP	0.446
RRIRARPPRLPRPRPRPLNFPRP	-0.249
RRIRARPPRLPRPRPRPLNIPRP	0.0473
RRIRARPPRLPRPRPRPLNMPRP	-0.502
RRIRARPPRLPRPRPRPLNRPRP	0.0549
RRIRARPPRLPRPRPRPLPCPRP	0.13
RRIRARPPRLPRPRPRPLPSPRP	0.353
RRIRARPPRLPRPRPRPLRQPRP	0.736
RRIRARPPRLPRPRPRPLTAPRP	0.542
RRIRARPPRLPRPRPRPMAHPRP	0.733
RRIRARPPRLPRPRPRPMCAPRP	0.813
RRIRARPPRLPRPRPRPMCGPRP	0.121

Sequence	shrunken log2 fold change
RRIRARPPRLPRPRPRPMDLPRP	-0.292
RRIRARPPRLPRPRPRPMDYPRP	-0.407
RRIRARPPRLPRPRPRPMEDPRP	-0.0391
RRIRARPPRLPRPRPRPMENPRP	0.423
RRIRARPPRLPRPRPRPMFIPRP	0.0587
RRIRARPPRLPRPRPRPMGLPRP	0.00193
RRIRARPPRLPRPRPRPMGNPRP	-0.101
RRIRARPPRLPRPRPRPMGYPRP	0.0315
RRIRARPPRLPRPRPRPMHDPRP	0.341
RRIRARPPRLPRPRPRPMIEPRP	0.314
RRIRARPPRLPRPRPRPMIRPRP	-0.388
RRIRARPPRLPRPRPRPMIYPRP	0.00125
RRIRARPPRLPRPRPRPMKLPRP	0.0594
RRIRARPPRLPRPRPRPMLCPRP	0.637
RRIRARPPRLPRPRPRPMLDPRP	0.504
RRIRARPPRLPRPRPRPMLLPRP	-0.0981
RRIRARPPRLPRPRPRPMLPPRP	0.425
RRIRARPPRLPRPRPRPMNCPRP	-0.116
RRIRARPPRLPRPRPRPMPDPRP	0.74
RRIRARPPRLPRPRPRPMQWPRP	0.442
RRIRARPPRLPRPRPRPMSCPRP	-0.114
RRIRARPPRLPRPRPRPMSFPRP	-0.0283
RRIRARPPRLPRPRPRPMSIPRP	-0.118
RRIRARPPRLPRPRPRPMSPPRP	0.342
RRIRARPPRLPRPRPRPMTEPRP	0.356

Sequence	shrunken log2 fold change
RRIRARPPRLPRPRPRPMTNPRP	0.178
RRIRARPPRLPRPRPRPMVTPRP	0.21
RRIRARPPRLPRPRPRPMWNPRP	-0.342
RRIRARPPRLPRPRPRPMWQPRP	-0.00908
RRIRARPPRLPRPRPRPNAWPRP	0.44
RRIRARPPRLPRPRPRPNCVPRP	0.23
RRIRARPPRLPRPRPRPNCWPRP	0.563
RRIRARPPRLPRPRPRPNDMPRP	-0.00462
RRIRARPPRLPRPRPRPNDPPRP	0.104
RRIRARPPRLPRPRPRPNEEPRP	0.276
RRIRARPPRLPRPRPRPNENPRP	0.177
RRIRARPPRLPRPRPRPNERPRP	0.531
RRIRARPPRLPRPRPRPNFAPRP	0.467
RRIRARPPRLPRPRPRPNFMPRP	0.186
RRIRARPPRLPRPRPRPNGWPRP	0.401
RRIRARPPRLPRPRPRPNGYPRP	0.122
RRIRARPPRLPRPRPRPNHFPRP	-0.0665
RRIRARPPRLPRPRPRPNIVPRP	0.0466
RRIRARPPRLPRPRPRPNKAPRP	0.00219
RRIRARPPRLPRPRPRPNKLPRP	-0.206
RRIRARPPRLPRPRPRPNKSPRP	-0.174
RRIRARPPRLPRPRPRPNLRPRP	0.022
RRIRARPPRLPRPRPRPNNEPRP	-0.14
RRIRARPPRLPRPRPRPNNNPRP	-0.471
RRIRARPPRLPRPRPRPNNVPRP	-0.0632

Sequence	shrunken log2 fold change
RRIRARPPRLPRPRPRPNNWPRP	0.0825
RRIRARPPRLPRPRPRPNQIPRP	0.0775
RRIRARPPRLPRPRPRPNQQPRP	0.284
RRIRARPPRLPRPRPRPNREPRP	0.226
RRIRARPPRLPRPRPRPNSAPRP	0.00853
RRIRARPPRLPRPRPRPNSEPRP	0.0883
RRIRARPPRLPRPRPRPNSHPRP	-0.248
RRIRARPPRLPRPRPRPNSRPRP	0.0429
RRIRARPPRLPRPRPRPNSVPRP	0.0162
RRIRARPPRLPRPRPRPNSWPRP	0.422
RRIRARPPRLPRPRPRPNTPPRP	-0.00444
RRIRARPPRLPRPRPRPNVTPRP	0.17
RRIRARPPRLPRPRPRPNWSPRP	0.225
RRIRARPPRLPRPRPRPNYAPRP	-0.0399
RRIRARPPRLPRPRPRPNYEPRP	-0.22
RRIRARPPRLPRPRPRPNYIPRP	-0.414
RRIRARPPRLPRPRPRPPALPRP	0.415
RRIRARPPRLPRPRPRPPASPRP	0.77
RRIRARPPRLPRPRPRPPCAPRP	0.598
RRIRARPPRLPRPRPRPPCGPRP	0.443
RRIRARPPRLPRPRPRPPCPPRP	0.489
RRIRARPPRLPRPRPRPPEFPRP	0.558
RRIRARPPRLPRPRPRPPENPRP	0.576
RRIRARPPRLPRPRPRPPEPPRP	0.686
RRIRARPPRLPRPRPRPPETPRP	0.55

Sequence	shrunken log2 fold change
RRIRARPPRLPRPRPRPPFAPRP	0.87
RRIRARPPRLPRPRPRPPFPPRP	0.625
RRIRARPPRLPRPRPRPPGCPRP	0.746
RRIRARPPRLPRPRPRPPGKPRP	0.188
RRIRARPPRLPRPRPRPPHGPRP	0.788
RRIRARPPRLPRPRPRPPHYPRP	0.857
RRIRARPPRLPRPRPRPPMHPRP	0.51
RRIRARPPRLPRPRPRPPNAPRP	0.825
RRIRARPPRLPRPRPRPPQDPRP	1.13
RRIRARPPRLPRPRPRPPQYPRP	0.33
RRIRARPPRLPRPRPRPPSGPRP	0.597
RRIRARPPRLPRPRPRPPVDPRP	0.545
RRIRARPPRLPRPRPRPPVQPRP	0.227
RRIRARPPRLPRPRPRPPWIPRP	0.38
RRIRARPPRLPRPRPRPPYPPRP	0.256
RRIRARPPRLPRPRPRPQAQPRP	0.664
RRIRARPPRLPRPRPRPQDAPRP	0.215
RRIRARPPRLPRPRPRPQDIPRP	-0.15
RRIRARPPRLPRPRPRPQEFPRP	-0.0568
RRIRARPPRLPRPRPRPQFGPRP	-0.217
RRIRARPPRLPRPRPRPQFHPRP	-0.116
RRIRARPPRLPRPRPRPQFMPRP	0.546
RRIRARPPRLPRPRPRPQGYPRP	0.119
RRIRARPPRLPRPRPRPQHGPRP	-0.265
RRIRARPPRLPRPRPRPQHNPRP	-0.26

Sequence	shrunken log2 fold change
RRIRARPPRLPRPRPRPQIDPRP	0.427
RRIRARPPRLPRPRPRPQINPRP	-0.0458
RRIRARPPRLPRPRPRPQIYPRP	-0.354
RRIRARPPRLPRPRPRPQKDPRP	0.0524
RRIRARPPRLPRPRPRPQMLPRP	1.97
RRIRARPPRLPRPRPRPQMVPRP	-0.0332
RRIRARPPRLPRPRPRPQNLPRP	-0.564
RRIRARPPRLPRPRPRPQNVPRP	-0.035
RRIRARPPRLPRPRPRPQPKPRP	0.465
RRIRARPPRLPRPRPRPQPTPRP	0.781
RRIRARPPRLPRPRPRPQQCPRP	0.132
RRIRARPPRLPRPRPRPQQKPRP	0.153
RRIRARPPRLPRPRPRPQQTPRP	0.141
RRIRARPPRLPRPRPRPQRCPRP	0.256
RRIRARPPRLPRPRPRPQTMPRP	0.108
RRIRARPPRLPRPRPRPQVDPRP	0.04
RRIRARPPRLPRPRPRPQVIPRP	-0.109
RRIRARPPRLPRPRPRPQVRPRP	-0.0207
RRIRARPPRLPRPRPRPQWFPRP	0.0925
RRIRARPPRLPRPRPRPQWSPRP	0.245
RRIRARPPRLPRPRPRPQWWPRP	0.464
RRIRARPPRLPRPRPRPQYSPRP	-0.0321
RRIRARPPRLPRPRPRPRAGPRP	0.896
RRIRARPPRLPRPRPRPRCSPRP	0.205
RRIRARPPRLPRPRPRPRDDPRP	0.647
